# In publication PMC8484605, “A complex of BRCA2 and PP2A-B56 is required for DNA repair by homologous recombination” (Nature Communications, 2021):
# Square brackets hold non-standard residues; d marks the D form. Ends that are not written are not given here. pT = C[C@@H](OP(=O)(O)O)[C@H](N)C(=O)O; pS = N[C@@H](COP(=O)(O)O)C(=O)O
# B1: BRCA2 1113-1129 pT1128 peptide (peptide)
# peptide: WELSTILEESGSQFEF[pT]Q
# notes: tryptophan at the N-terminus, outside the stated BRCA2 limits; human BRCA2, residues 1113-1129, T1128 phosphorylated; source: synthetic peptide (Peptide 2.0 Inc.)
# B2: BRCA2 1113-1129 pS1123 peptide (peptide)
# peptide: WELSTILEESG[pS]QFEFTQ
# notes: tryptophan at the N-terminus, outside the stated BRCA2 limits; human BRCA2, residues 1113-1129, S1123 phosphorylated; source: synthetic peptide (Peptide 2.0 Inc.)
# B3: BRCA2 1113-1129 peptide (peptide)
# peptide: WELSTILEESGSQFEFTQ
# notes: tryptophan at the N-terminus, outside the stated BRCA2 limits; human BRCA2, residues 1113-1129; source: synthetic peptide (Peptide 2.0 Inc.)
# B4: BRCA2 1108-1126 peptide (peptide)
# peptide: WKAEITELSTILEESGSQFE
# notes: tryptophan at the N-terminus, outside the stated BRCA2 limits; human BRCA2, residues 1108-1126 with the LxxIxE motif; The added W probably serves the A280 concentration measurement; also called BRCA2^1108-1126 WT; source: synthetic peptide (Peptide 2.0 Inc.)
# B5: BRCA2 1105-1129 3DQ peptide (peptide)
# peptide: PDQKAEITELSTILEESGDQFEFDQW
# notes: human BRCA2, residues 1105-1129 with the three SQ/TQ sites changed to DQ (phosphomimetic); tryptophan at the C-terminus, outside the stated BRCA2 limits; source: synthetic peptide (Peptide 2.0 Inc.)
# B6: BRCA2 1105-1129 peptide (peptide)
# peptide: PSQKAEITELSTILEESGSQFEFTQW
# notes: human BRCA2, residues 1105-1129; tryptophan at the C-terminus, outside the stated BRCA2 limits; also called BRCA2^1105-1129 WT; source: synthetic peptide (Peptide 2.0 Inc.)
# B7: BRCA2 1105-1129 T1128I peptide (peptide)
# peptide: PSQKAEITELSTILEESGSQFEFIQW
# notes: human BRCA2, residues 1105-1129 with the missense variant T1128I reported in individuals (ClinVar); tryptophan at the C-terminus, outside the stated BRCA2 limits; also called c.3383 C > T; source: synthetic peptide (Peptide 2.0 Inc.)
# B8: BRCA2 1105-1129 S1106R peptide (peptide)
# peptide: PRQKAEITELSTILEESGSQFEFTQW
# notes: human BRCA2, residues 1105-1129 with the missense variant S1106R reported in individuals (ClinVar); tryptophan at the C-terminus, outside the stated BRCA2 limits; also called c.3318 C > G; source: synthetic peptide (Peptide 2.0 Inc.)
# B9: BRCA2 1105-1129 T1116P peptide (peptide)
# peptide: PSQKAEITELSPILEESGSQFEFTQW
# notes: human BRCA2, residues 1105-1129 with the missense variant T1116P reported in individuals (ClinVar); tryptophan at the C-terminus, outside the stated BRCA2 limits; also called c.3346 A > C; source: synthetic peptide (Peptide 2.0 Inc.)
# B10: BRCA2 1113-1129 pS1123, pT1128 peptide (peptide)
# peptide: WELSTILEESG[pS]QFEF[pT]Q
# notes: tryptophan at the N-terminus, outside the stated BRCA2 limits; human BRCA2, residues 1113-1129, S1123 and T1128 phosphorylated; also called double phosphorylated peptide; source: synthetic peptide (Peptide 2.0 Inc.)
# What was measured:
# B56α [1] = molecular target: T1, B56α (Homo sapiens, UniProt Q15172); assay: isothermal titration calorimetry; settings: reference: unphosphorylated peptide
# [2] = system: BRCA2 pT1104/pS1106 and pT1128; assay: Western blot of BRCA2 phosphorylation in BRCA2 immunoprecipitates; type: cell-based, human; settings: U2OS Flp-In T-REx, S-phase, released 1 h, 2 μM CPT for 1 h
# Protocol: For immunoprecipitations of endogenous BRCA2, U2OS Flp-In T-REx cells were synchronized to S-phase as described above, released for 1 h, and treated for 1 h with 2 μM CPT in presence or absence of 25 μM KU55933 (ATM kinase inhibitor) and 5 μM AZ20 (ATR kinase inhibitor). Cells were lysed in RIPA buffer, and proteins were immunoprecipitated on BRCA2 antibody-conjugated (Millipore Cat# OP95, RRID:AB_2067762) Rec-protein G Sepharose 4B beads (Invitrogen) for 1 h at 4 °C and washed in RIPA buffer prior to elution.
# All buffers were supplemented with 1 mM DTT, Complete protease inhibitor cocktail (Roche), and PhosSTOP phosphatase inhibitor cocktail (Roche). For λ phosphatase treatment experiments, immunoprecipitants on beads were washed in buffer without phosphatase inhibitor and incubated with λ phosphatase (Sigma–Aldrich) in the applied buffer for 20 min at 30 °C before elution. Immunoprecipitants were eluted in 2× NuPage LDS sample buffer (Invitrogen). Whole-cell extracts and immunoprecipitations were analyzed by SDS-PAGE and western blotting or mass spectrometry analysis. For western blotting, samples were boiled for 5 min in NuPage LDS sample buffer and run on NuPage Bis-Tris 4–12% protein gels (Invitrogen), and proteins were transferred to PVDF membranes (Immobilon-FL, Merck). […] Quantification of western blots were carried out in ImageStudioLite (version 5.2.5., LI-COR). […]
# U2OS Flp-In T-REx cells [3] = assay: Colony formation assay: CPT sensitivity; type: cell-based, human
# Protocol: For transient protein expression, cells were transfected with Lipofectamine 2000 (Invitrogen) and the plasmid of interest and incubated for 48 h unless otherwise stated. For BRCA2 knockdown, cells were transfected twice with 10 nM Silencer Select BRCA2 s2084 siRNA and 10 nM Silencer Select BRCA2 s2085 siRNA (Ambion) using Lipofectamine RNAiMAX (Invitrogen) 24 and 48 h before the experiment. A luciferase oligo ([NT], Sigma) was used for control (Ctrl). U2OS Flp-In T-REx parental cells or stably expressing siRNA-resistant venus-MBP-BRCA2 constructs were transfected with Ctrl or BRCA2 siRNA as described above. […] Reseeding was performed by trypsinizing the cells, dissolving into growth medium, and counting the number of cells using the Scepter Cell Counter (Merck), followed by seeding a known number of cells into six-well plates containing growth medium. After 11 days, the cells were fixed and stained in 0.5% methylviolet, 25% methanol. The plates were scanned on a GelCount (Oxford Optronix), and the number of colonies were quantified using the GelCount software (version 1.3.04). The plating efficiency (%) for each well was calculated as the number of colonies divided by the number of cells seeded times 100. The surviving fraction for each dose of drug was calculated by normalizing the plating efficiency to that of the unperturbed condition. […]
# B56α [4] = molecular target: T1, B56α; assay: Isothermal titration calorimetry (ITC) of BRCA2 peptides binding to B56α; design: His; made in house; host or cells: E. coli BL21 Rosetta2 (DE3) R3 T1; settings: ITC at 25 °C; 50 mM sodium phosphate pH 7.5, 150 mM NaCl, 0.5 mM TCEP; peptide titrated into B56α; single-site model; error = standard error of the fitting; performed once
# Protocol: Both recombinant B56α and synthetic BRCA2 peptides were extensively dialyzed prior to ITC experiments against the ITC buffer (50 mM sodium phosphate pH 7.5, 150 mM NaCl, 0.5 mM TCEP). All experiments were performed on a MicroCal Auto-iTC200 (Malvern Panalytical) instrument at 25 °C (Auto-iTC200 version 1.1.1.0, iTC200 version 1.26.4, Origin version 7.0552 SR4). Both peptide and B56α concentrations were determined using a spectrophotometer by measuring the absorbance at 280 nm and applying values for the extinction coefficients as computed from the corresponding sequences by the ProtParam program (http://web.expasy.org/protparam/). The BRCA2 peptides were loaded into the syringe and titrated into the calorimetric cell containing B56α. The reference cell was filled with distilled water. Control experiments with the peptides injected in the sample cell filled with buffer were carried out under the same experimental conditions. […] The titration sequence consisted of a single 0.4 μl injection followed by 19 injections, 2 μl each, with 150 s spacing between injections to ensure that the thermal power returns to the baseline before the next injection. The stirring speed was 750 rpm. […] Data were analysed with MicroCal PEAQ-ITC analysis software (version 1.1.0.1262., Malvern Panalytical).
# U2OS Flp-In T-REx cells [5] = assay: Colony formation assay: MMC sensitivity; type: cell-based, human
# Protocol: For transient protein expression, cells were transfected with Lipofectamine 2000 (Invitrogen) and the plasmid of interest and incubated for 48 h unless otherwise stated. For BRCA2 knockdown, cells were transfected twice with 10 nM Silencer Select BRCA2 s2084 siRNA and 10 nM Silencer Select BRCA2 s2085 siRNA (Ambion) using Lipofectamine RNAiMAX (Invitrogen) 24 and 48 h before the experiment. A luciferase oligo (5′-[sequence]dTdT-3′, Sigma) was used for control (Ctrl).
# U2OS Flp-In T-REx parental cells or stably expressing siRNA-resistant venus-MBP-BRCA2 constructs were transfected with Ctrl or BRCA2 siRNA as described above. Then, cells were either treated with 0, 3, or 10 ng/mL Mitomycin C for 24 h followed by reseeding into normal growth medium or reseeded directly and either treated for 24 h with 0, 5, or 15 nM CPT or continuously maintained in medium containing 0, 5.6, 16.7, or 50 nM Olaparib. […] The plates were scanned on a GelCount (Oxford Optronix), and the number of colonies were quantified using the GelCount software (version 1.3.04). The plating efficiency (%) for each well was calculated as the number of colonies divided by the number of cells seeded times 100. The surviving fraction for each dose of drug was calculated by normalizing the plating efficiency to that of the unperturbed condition. […]
# U2OS Flp-In T-REx cells [6] = assay: Colony formation assay: Olaparib sensitivity; type: cell-based, human
# Protocol: For transient protein expression, cells were transfected with Lipofectamine 2000 (Invitrogen) and the plasmid of interest and incubated for 48 h unless otherwise stated. For BRCA2 knockdown, cells were transfected twice with 10 nM Silencer Select BRCA2 s2084 siRNA and 10 nM Silencer Select BRCA2 s2085 siRNA (Ambion) using Lipofectamine RNAiMAX (Invitrogen) 24 and 48 h before the experiment. A luciferase oligo ([NT], Sigma) was used for control (Ctrl). U2OS Flp-In T-REx parental cells or stably expressing siRNA-resistant venus-MBP-BRCA2 constructs were transfected with Ctrl or BRCA2 siRNA as described above. […] Reseeding was performed by trypsinizing the cells, dissolving into growth medium, and counting the number of cells using the Scepter Cell Counter (Merck), followed by seeding a known number of cells into six-well plates containing growth medium. After 11 days, the cells were fixed and stained in 0.5% methylviolet, 25% methanol. The plates were scanned on a GelCount (Oxford Optronix), and the number of colonies were quantified using the GelCount software (version 1.3.04). The plating efficiency (%) for each well was calculated as the number of colonies divided by the number of cells seeded times 100. The surviving fraction for each dose of drug was calculated by normalizing the plating efficiency to that of the unperturbed condition. The plating efficiency data of Figs. 2, 3, and Supplementary Fig. 3 is derived from the unperturbed condition of the MMC sensitivity dataset, and the plating efficiency data of Fig. 4 is derived from the unperturbed condition of the Olaparib sensitivity dataset. Graphs were constructed in PRISM, and one-way ANOVA analyses with Dunnett's multiple comparison tests were performed comparing the mean of each condition to the siBRCA2 + WT condition. Exact p values are provided in the source data.
# His-tagged B56α = molecular target: T2, His-tagged B56α (UniProt Q15172 1-486); assay: ITC; BRCA2 peptide in the syringe titrated into B56α in the cell; 25 °C; 50 mM sodium phosphate pH 7.5, 150 mM NaCl, 0.5 mM TCEP; single-site model; settings: both partners purified
# T2 construct: source: E. coli BL21 Rosetta2 (DE3) R3 T1, purified (Ni column, Superdex 200)
# [7] = BRCA2 depletion (siBRCA2) vs siCtrl
# [8] = cells expressing BRCA2 3AQ compared to BRCA2 WT
# T2 sequence (Q15172 whole entry): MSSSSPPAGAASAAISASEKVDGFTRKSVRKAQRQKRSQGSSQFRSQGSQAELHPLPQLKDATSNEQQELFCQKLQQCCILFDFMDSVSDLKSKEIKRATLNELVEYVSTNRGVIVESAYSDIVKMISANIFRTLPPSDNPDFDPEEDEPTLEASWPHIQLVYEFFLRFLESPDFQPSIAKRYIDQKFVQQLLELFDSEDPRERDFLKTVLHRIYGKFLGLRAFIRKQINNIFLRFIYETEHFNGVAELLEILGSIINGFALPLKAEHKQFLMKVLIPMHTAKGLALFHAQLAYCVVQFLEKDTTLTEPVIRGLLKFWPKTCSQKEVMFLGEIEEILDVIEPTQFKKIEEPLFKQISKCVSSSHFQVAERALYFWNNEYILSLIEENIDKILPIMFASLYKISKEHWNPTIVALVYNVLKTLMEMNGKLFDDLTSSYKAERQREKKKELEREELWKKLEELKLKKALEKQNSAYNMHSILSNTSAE
# T1 sequence (Q15172 whole entry): as above
Molecule,Kd (His-tagged B56α),stoichiometry N (His-tagged B56α),other results
BRCA2 (from UniProt P51587) pT1128 peptide (printed once as S1128),–,–,fold change (B56α [1]; sites T1128): stronger
"CC[C@@]1(O)C(=O)OCc2c1cc1n(c2=O)Cc2cc3ccccc3nc2-1 [Camptothecin, camptothecin]",–,–,phosphorylation of BRCA2 T1104/S1106 and T1128 [2]: stimulated; CPT sensitivity (U2OS Flp-In T-REx cells [3]; [7]): hypersensitivity; CPT sensitivity (U2OS Flp-In T-REx cells [3]; [8]): hypersensitivity
BRCA2 (from UniProt P51587) pS1123 peptide,–,–,fold change (B56α [1]; sites S1123): stronger
"WKAEITEASTALEESGSQFE [BRCA2^1108-1126 2A, synthetic BRCA2 peptide 1108-1126 with L1114A-I1117A]",–,–,KD (B56α [4]): No binding
BRCA2 (from UniProt P51587) doubly phosphorylated pS1123/pT1128 peptide,–,–,"fold change (B56α [1]; sites S1123,T1128): stronger"
BRCA2 (from UniProt P51587) pS1106 peptide,–,–,binding against the reference (B56α [1]; sites S1106): weaker
"CO[C@@]12[C@H](COC(N)=O)C3=C(C(=O)C(C)=C(N)C3=O)N1C[C@@H]1N[C@@H]12 [MMC, Mitomycin C]",–,–,MMC sensitivity (U2OS Flp-In T-REx cells [5]; [7]): hypersensitivity; MMC sensitivity (U2OS Flp-In T-REx cells [5]; cells expressing BRCA2 3AQ or 3DQ compared to BRCA2 WT): hypersensitivity
O=C(c1cc(Cc2n[nH]c(=O)c3ccccc23)ccc1F)N1CCN(C(=O)C2CC2)CC1 [Olaparib],–,–,"Olaparib sensitivity (U2OS Flp-In T-REx cells [6]; [7]): hypersensitivity; Olaparib sensitivity (U2OS Flp-In T-REx cells [6]; [8]): hypersensitivity; Olaparib sensitivity (U2OS Flp-In T-REx cells [6]; cells expressing BRCA2 S1106R, T1116P or T1128I compared to BRCA2 WT): mild sensitivity"
B1,1.38 µM,0.94,–
B2,0.77 µM,0.92,–
B3,3.82 µM,1.01,–
B4,5.17 µM,1.02,–
B5,3.75 µM,0.86,–
B6,7.76 µM,0.99,–
B7,7.43 µM,1.01,–
B8,2.93 µM,0.95,–
B9,6.92 µM,0.85,–
B10,0.48 µM,0.91,–
